Data published in patent US20240317847A1 (Bayer, published 2024).

T1: human IL2Ra (human, UniProt P01589 22-240, limits assumed)
T1 construct: coated on the ELISA plate; also called IL-2 receptor alpha
T1 sequence (looked up): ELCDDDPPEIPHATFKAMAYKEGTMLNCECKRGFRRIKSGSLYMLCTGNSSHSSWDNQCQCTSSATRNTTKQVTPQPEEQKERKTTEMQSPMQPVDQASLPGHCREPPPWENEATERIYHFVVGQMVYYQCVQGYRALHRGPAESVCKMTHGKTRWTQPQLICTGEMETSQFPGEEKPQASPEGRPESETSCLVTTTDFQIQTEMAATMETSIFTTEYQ

T2: human IL2Ra (Peprotech, Germany, #200-02RC) (human, UniProt P01589 22-240)
T2 construct: Coated on the ELISA plate; also called hIL2Ra; IL-2 receptor alpha
T2 sequence (looked up): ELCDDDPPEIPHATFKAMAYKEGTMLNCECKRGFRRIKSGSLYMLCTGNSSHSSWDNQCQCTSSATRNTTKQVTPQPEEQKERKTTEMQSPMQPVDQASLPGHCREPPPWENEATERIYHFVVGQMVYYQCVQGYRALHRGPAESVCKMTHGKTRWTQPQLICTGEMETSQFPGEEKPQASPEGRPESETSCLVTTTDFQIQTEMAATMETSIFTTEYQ

T3: human IL-11 (Invigate, e.g., lot #C121021-19) (human, UniProt P20809 22-199)
T3 construct: Bought protein; also called hIL-11; hIL11
T3 sequence: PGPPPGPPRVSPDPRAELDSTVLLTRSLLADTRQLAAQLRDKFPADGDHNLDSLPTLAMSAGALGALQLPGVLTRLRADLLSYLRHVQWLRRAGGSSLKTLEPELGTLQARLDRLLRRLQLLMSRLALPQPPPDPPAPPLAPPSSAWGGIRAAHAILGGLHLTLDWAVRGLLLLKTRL

T4: murine IL-11 (Invigate, e.g., lot #C210819-09) (mouse, UniProt P47873 22-199)
T4 construct: Bought protein; biotinylated where captured on streptavidin plates; also called mIL-11; mIL11
T4 sequence: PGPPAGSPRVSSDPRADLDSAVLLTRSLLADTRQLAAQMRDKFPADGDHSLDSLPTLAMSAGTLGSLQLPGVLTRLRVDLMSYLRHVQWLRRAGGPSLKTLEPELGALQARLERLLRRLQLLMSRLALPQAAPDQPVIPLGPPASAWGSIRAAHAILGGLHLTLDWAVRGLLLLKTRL


Assays:
[1] = target: T1, human IL2Ra; assay: ELISA on coated IL2Ra, signal ratio to isotype control
Protocol: IL2RA (Peprotech, Germany, #200-02RC) was coated at 1 or 0 μg/ml (buffer only control) in 30 μl coating buffer (Candor, #113500) per well on a 384 well microtiter plate (Maxisorb, Nunc, #460518) over night at 4-8° C. After two washes with 50 μl/well washing buffer (PBS+0.05% Tween, pH 7.4), the plates were incubated for two hours at room temperature with 50 μl/well SmartBlock (Candor, #113500). After blocking, the plates were washed three times with washing buffer. Then, a dilution series of the respective antibody (1E-7 [M] down to 2E-13 [M]) in PBS+0.05% Tween, 10% SmartBlock were added in 30 μl to the microtiter plate and incubated for 90 min at room temperature. After three additional washes, 30 μl anti mouse IgG HRP-conjugated antibody (Biotechne, HAF007), diluted 1:1000 in PBS+0.05% Tween (pH 7.4), were added per well and incubated for one hour. […] Relative fluorescence was measured with a microtiter plate reader at 535/590 nm.
Bispecific antibodies were subjected to the experimental assay procedure described in Example 20. Ratios of the signals generated at an antibody concentration of 1E-07 [M] by the respective bispecific antibody versus those of an isotype control antibody were calculated and are shown in Table E29. […]

[2] = target: T1, human IL2Ra; assay: ELISA on coated IL2Ra, signal ratio to isotype control at 1E-07 M antibody
Protocol: (§1) IL2RA (Peprotech, Germany, #200-02RC) was coated at 1 or 0 μg/ml (buffer only control) in 30 μl coating buffer (Candor, #113500) per well on a 384 well microtiter plate (Maxisorb, Nunc, #460518) over night at 4-8° C. After two washes with 50 μl/well washing buffer (PBS+0.05% Tween, pH 7.4), the plates were incubated for two hours at room temperature with 50 μl/well SmartBlock (Candor, #113500). After blocking, the plates were washed three times with washing buffer. Then, a dilution series of the respective antibody (1E-7 [M] down to 2E-13 [M]) in PBS+0.05% Tween, 10% SmartBlock were added in 30 μl to the microtiter plate and incubated for 90 min at room temperature. After three additional washes, 30 μl anti mouse IgG HRP-conjugated antibody (Biotechne, HAF007), diluted 1:1000 in PBS+0.05% Tween (pH 7.4), were added per well and incubated for one hour. After three additional washes, a mixture of Amplex red (Invitrogen, #12222, 10 mM stock solution in DMSO) 1:1000 diluted in PBS and H2O2 (30%, Merck, #107209)) diluted 1:10000 in PBS were added as substrate with 30 μl per well and incubated for 20 min in the dark. Relative fluorescence was measured with a microtiter plate reader at 535/590 nm.
Bispecific antibodies were subjected to the experimental assay procedure described in Example 20. Ratios of the signals generated at an antibody concentration of 1E-07 [M] by the respective bispecific antibody versus those of an isotype control antibody were calculated and are shown in Table E29. The bispecific antibodies show no binding to IL-2 Ra.

[3] = target: T2, human IL2Ra (Peprotech, Germany, …); assay: direct binding ELISA on coated IL2Ra
[4] = target: T2, human IL2Ra (Peprotech, Germany, …); assay: direct binding ELISA on coated IL2Ra, antibody at 3.3E-7 [M]
Protocol: as §1, with “Then, a dilution series of the respective antibody (1E-7 [M] down to 2E-13 [M]) in PBS+0.05% Tween, 10% SmartBlock were added in 30 μl to the microtiter plate and incubated for 90 min at room temperature.” left out

[5] = target: T3, human IL-11 (Invigate, e.g., lot …); assay: SPR, Biacore T200, 25 C; antibody captured via anti-mouse Fc, IL-11 as analyte, 1:1 Langmuir fit
Protocol: (§2) Antibodies were captured via anti-mouse Fc IgGs (“Mouse antibody capture kit, Order No. BR100383, Cytiva) covalently amine coupled to a Series S CM5 sensor chip (Cytiva). The amine coupling was carried out according to the manufacturer's instructions using 1-ethyl-3-(3-dimethylaminopropyl) carbodiimide hydrochloride (EDC), N-hydroxysuccinimide (NHS) and ethanolamine HCl, pH 8.5 (“Amine Coupling Kit” BR-1000-50, Cytiva.). Human IL-11 (Invigate, e.g., lot #C121021-19), and murine IL-11 (Invigate, e.g., lot #C210819-09) were used as analytes. […] Based on that experiment an IL-11 concentration range was chosen to optimally determine kinetics and affinity of anti-IL-11 antibodies in multicycle kinetics mode. The sensor surface was regenerated with glycine pH 1.7 after each antigen injection. Obtained sensorgrams were double referenced (subtraction of reference flow cell signal and buffer injection) and were fitted to a 1:1 Langmuir binding model to derive kinetic data using the Biacore T200 Evaluation software or the Biacore Insight software.

[6] = target: T4, murine IL-11 (Invigate, e.g., lot …); assay: as above
Protocol: as §2

Row | binding result [1] | Ratio IL-2Ra Binding Signal Antibody/Isotype Control [2] [ratio] | binding result [3] | ratio of the signals versus the isotype control TPP-10159 [4] | Kd [5] [nM] | Kd [6] [nM] | Binder
1 | no binding (tested: 1E-07 M antibody) | 1.9 | – | – | – | – | TPP-29603 (bispecific antibody, IgG1, scFv-kih-mIgG1; bispecific comprising CDRs of TPP-29528 and TPP-29519) chain 1: QVQLVESGGGVVQPGRSLRLSCAASGFTFSHYDMHWVRQAPGKGLEWVAVISYHGSVKFYADSVKGRFTISRDNSKNTLYLQMNSLRAEDTAVYYCARTPGFHFDYWGQGTLVTVSSGGGGSGGGGSGGGGSQSVLTQPPSASGTPGQRVTISCSGSSSNIGSNYVSWYQQLPGTAPKLLIYYDDLRPSGVPDRFSGSKSGTSASLAISGLRSEDEADYYCSAWDDSLSGVVFGGGTKLTVLGGGGSGGGGSGGGGSGVECPPCPAPPVAGPSVFIFPPKPKDVLTITLTPKVTCVVVDISKDDPEVQFSWFVDDVEVHTAQTQPREEQFNSTFRSVSELPIMHQDWLNGKEFKCRVNSAAFPAPIEKTISKTKGRPKAPQVYTIPPCKEQMAKDKVSLWCMITDFFPEDITVEWQWNGQPAENYKNTQPIMDTDGSYFVYSKLNVQKSNWEAGNTFTCSVLHEGLHNHHTEKSLSHSPGK chain 2: EVQLLESGGGLVQPGGSLRLSCAASGFTFSSYGMHWVRQAPGKGLEWVAVISYDGSYKYYADSVKGRFTISRDNSKNTLYLQMNSLRAEDTAVYYCAAGVPDYWGQGTLVTVSSGGGGSGGGGSGGGGSQSVLTQPPSASGTPGQRVTISCSGSSSNIGSDYDVHWYQQLPGTAPKLLIYSNEERPSGVPDRFSGSKSGTSASLAISGLRSEDEADYYCSAWDSSLSGPVFGGGTKLTVLGGGGSGGGGSGGGGSGVECPPCPAPPVAGPSVFIFPPKPKDVLTITLTPKVTCVVVDISKDDPEVQFSWFVDDVEVHTAQTQPREEQFNSTFRSVSELPIMHQDWLNGKEFKCRVNSAAFPAPIEKTISKTKGRPKAPQVCTIPPPKEQMAKDKVSLSCAITDFFPEDITVEWQWNGQPAENYKNTQPIMDTDGSYFVVSKLNVQKSNWEAGNTFTCSVLHEGLHNHHTEKSLSHSPGK
2 | – | – | no binding (tested: 3.3E-7 [M] antibody) | 2.4 | 53 | 42 | TPP-18087 (antibody, mouse IgG1, V domains shown, mIgG1, Lambda) VH: EVQLLESGGGLVQPGGSLRLSCAASGFTFSHYDMNWLRQAPGKGLEWVGVISYDGSNKFYADFVKGRFTISRDNSKNTLYLQMNSLRAEDTAVYYCARTPGSHFDYWGQGTLVTVSS VL: QSVLTQPPSASGTPGQRVTISCSGSSSNIGNNAVNWYQQLPGTAPKLLIYYDDLLPSGVPDRFSGSKSGTSASLAISGLRSEDEADYYCSAWDDSLNGVVFGGGTKLTVLG
3 | – | – | no binding (tested: 3.3E-7 [M] antibody) | 0.8 | 11 | 9 | TPP-19528 (antibody, mouse IgG1, V domains shown, mIgG1, Lambda) VH: EVQLLESGGGLVQPGGSLRLSCAASGFTFSIYAMSWVRQAPGKGLEWVSSISDTGDRTYYADSVKGRFTISRDNSKNTLYLQMNSLRAEDTAVYYCARSNWGSLDYWGQGTLVTVSS VL: QSVLTQPPSASGTPGQRVTISCSGSSSNIGSNYVYWYQQLPGTAPKLLIYYDDLLPSGVPDRFSGSKSGTSASLAISGLRSEDEADYYCAAWDDSLSGRVFGGGTKLTVLG
4 | no binding (tested: 1E-07 M antibody) | 0.8 | – | – | – | – | TPP-29697 (bispecific antibody, IgG1, scFv-kih-hIgG1 with Fc-silencing mutations; bispecific comprising CDRs of TPP-29528 and TPP-29519) chain 1: QVQLVESGGGVVQPGRSLRLSCAASGFTFSHYDMHWVRQAPGKGLEWVAVISYHGSVKFYADSVKGRFTISRDNSKNTLYLQMNSLRAEDTAVYYCARTPGFHFDYWGQGTLVTVSSGGGGSGGGGSGGGGSQSVLTQPPSASGTPGQRVTISCSGSSSNIGSNYVSWYQQLPGTAPKLLIYYDDLRPSGVPDRFSGSKSGTSASLAISGLRSEDEADYYCSAWDDSLSGVVFGGGTKLTVLGGGGSGGGGSGGGGSGVECPPCPAPPVAGPSVFLFPPKPKDTLMISRTPEVTCVVVGVSHEDPEVKFNWYVDGVEVHNAKTKPREEQYNSTYRVVSVLTVLHQDWLNGKEYKCKVSNKQLPSPIEKTISKAKGQPREPQVYTLPPCRDELTKNQVSLWCLVKGFYPSDIAVEWESNGQPENNYKTTPPVLDSDGSFFLYSKLTVDKSRWQQGNVFSCSVMHEALHNHYTQKSLSLSPGK chain 2: EVQLLESGGGLVQPGGSLRLSCAASGFTFSSYGMHWVRQAPGKGLEWVAVISYDGSYKYYADSVKGRFTISRDNSKNTLYLQMNSLRAEDTAVYYCAAGVPDYWGQGTLVTVSSGGGGSGGGGSGGGGSQSVLTQPPSASGTPGQRVTISCSGSSSNIGSDYDVHWYQQLPGTAPKLLIYSNEERPSGVPDRFSGSKSGTSASLAISGLRSEDEADYYCSAWDSSLSGPVFGGGTKLTVLGGGGSGGGGSGGGGSGVECPPCPAPPVAGPSVFLFPPKPKDTLMISRTPEVTCVVVGVSHEDPEVKFNWYVDGVEVHNAKTKPREEQYNSTYRVVSVLTVLHQDWLNGKEYKCKVSNKQLPSPIEKTISKAKGQPREPQVCTLPPSRDELTKNQVSLSCAVKGFYPSDIAVEWESNGQPENNYKTTPPVLDSDGSFFLVSKLTVDKSRWQQGNVFSCSVMHEALHNHYTQKSLSLSPGK
